Target: 5T4 antigen on the cell surface (A431 cells and 5T4 over-expressing recombinant MDA-MB-231 cells) (human) (UniProt Q13641)
Experiment: flow cytometry (MFI) on 5T4-expressing cells, anti-Fc FITC detection

Sequence of 5T4 antigen on the cell surface (A431 cells and 5T4 over-expressing recombinant MDA-MB-231 cells) (human) (Q13641 32-420): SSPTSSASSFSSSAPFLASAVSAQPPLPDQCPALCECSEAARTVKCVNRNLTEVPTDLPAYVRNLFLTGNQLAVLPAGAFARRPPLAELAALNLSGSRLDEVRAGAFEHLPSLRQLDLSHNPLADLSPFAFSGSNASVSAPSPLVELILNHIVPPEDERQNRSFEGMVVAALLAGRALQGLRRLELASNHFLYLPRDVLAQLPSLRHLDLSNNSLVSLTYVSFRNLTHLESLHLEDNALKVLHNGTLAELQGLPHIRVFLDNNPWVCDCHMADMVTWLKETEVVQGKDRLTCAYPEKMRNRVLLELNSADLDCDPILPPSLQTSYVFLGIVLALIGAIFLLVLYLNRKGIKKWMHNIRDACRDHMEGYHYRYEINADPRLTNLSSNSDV

Q: non-binding scFvFc fusion protein was tested. Which fold less binding than the anti-5T4 scFvFc molecules did it give?
A: Its fold less binding than the anti-5T4 scFvFc molecules is 200 fold less.
